In this data set the target is DDX3X core WT (Homo sapiens, UniProt O00571 132-607). Description: NMR (13C-1H HMQC); AMPPNP; apparent affinity lower than E348Q with ATP; EMSA: 20 mM HEPES-NaOH pH 7.4, 100 mM NaCl, 5 mM DTT, 10% glycerol, 5 mM ATP/MgCl2 or ADP/EDTA, 100 nM RNA; NMR: 35 C (30 C for UA-12mer), 40-50 uM protein (HMQC) or 100 uM RNA (19F), 5 mM ATP/MgCl2; NMR buffer not given in the material. Particulars: protein: recombinant; tags: His6-SUMO removed (Ulp1); two-Gly linker. (In general: A gel shift assay detects complexes by their altered migration in electrophoresis.)
Sequence of DDX3X core WT (O00571 132-607): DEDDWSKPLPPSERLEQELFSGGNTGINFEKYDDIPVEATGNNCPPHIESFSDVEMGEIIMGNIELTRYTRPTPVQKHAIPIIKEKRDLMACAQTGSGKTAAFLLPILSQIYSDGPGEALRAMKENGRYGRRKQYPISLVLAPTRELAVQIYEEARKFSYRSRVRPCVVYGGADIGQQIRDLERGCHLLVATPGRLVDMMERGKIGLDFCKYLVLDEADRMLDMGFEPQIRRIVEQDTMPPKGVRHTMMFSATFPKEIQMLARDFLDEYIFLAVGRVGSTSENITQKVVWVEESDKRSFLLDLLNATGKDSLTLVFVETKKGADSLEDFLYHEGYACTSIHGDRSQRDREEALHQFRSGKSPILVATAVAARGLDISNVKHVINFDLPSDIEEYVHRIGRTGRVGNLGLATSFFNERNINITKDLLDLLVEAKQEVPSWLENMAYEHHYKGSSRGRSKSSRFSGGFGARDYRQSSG

On to UUUUUUUUUU (ssRNA) [poly-U10], for which the binding result was “binds”.

For the origin of these results see PMC11045745, “NMR characterization of RNA binding property of the DEAD-box RNA helicase DDX3X and its implications for helicase activity”.
